Measured values taken from US20210380702A1 (Regeneron, published 2021).
Values joined by “and” are separate entries in the source; they are usually repeats but may differ in a detail not shown here. Equal values may be shown once.

Key:
[1] = target: T1, recombinant cynomolgus monkey PD-L1 with a C-terminal mouse IgG2a Fc tag (cynomolgus monkey (Macaca fascicularis)); experiment: SPR (Biacore), mAb captured, 25C
T1 construct: also called MfPD-L1-mFc; monkey PD-L1-mFc
Description: (§1) Binding association and dissociation rate constants (kₐ and kd, respectively), equilibrium dissociation constants and dissociation half-lives (KD and t_{1/2}, respectively) of antigen binding to purified anti-PD-L1 monoclonal antibodies were determined using a real-time surface plasmon resonance biosensor assay on a Biacore 4000 instrument. The Biacore sensor surface was either derivatized with polyclonal rabbit anti-mouse antibody (GE, #BR-1008-38) or with monoclonal mouse anti-human Fc antibody (GE, #BR-1008-39) to capture approximately 200-300 RUs of anti-PD-L1 monoclonal antibodies, expressed with either a mouse Fc or with human Fc, respectively. […] Different concentrations of PD-L1 reagents were injected over the anti-PD-L1 monoclonal antibody captured surface at a flow rate of 30 μL/min. The binding of the PD-L1 reagents to the captured monoclonal antibodies was monitored for 3 to 4 minutes while the dissociation of antibody bound PD-L1 reagents was monitored for 10 minutes in HBST running buffer (0.01 M HEPES pH 7.4, 0.15 M NaCl, 3 mM EDTA, 0.05% v/v Surfactant tween-20). Experiments were performed at either 25° C. or 37° C. Kinetic association (kₐ) and dissociation (kd) rate constants were determined by processing and fitting the data to a 1:1 binding model using Scrubber 2.0c curve fitting software. Binding dissociation equilibrium constants (KD) and dissociative half-lives (t_{1/2}) were then calculated from the kinetic rate constants as: KD (M)=kd/kₐ and t_{1/2} (min)=[In2/(60*kd)].

[2] = target: T2, recombinant cynomolgus monkey PD-L1 with a C-terminal myc-myc-hexahistidine tag (cynomolgus monkey (Macaca fascicularis)); experiment: SPR (Biacore), mAb captured, 25C
T2 construct: also called MfPD-L1-MMH; MfPD-L1-MMH Monomer
T2 sequence (chain, as listed by the source limits assumed): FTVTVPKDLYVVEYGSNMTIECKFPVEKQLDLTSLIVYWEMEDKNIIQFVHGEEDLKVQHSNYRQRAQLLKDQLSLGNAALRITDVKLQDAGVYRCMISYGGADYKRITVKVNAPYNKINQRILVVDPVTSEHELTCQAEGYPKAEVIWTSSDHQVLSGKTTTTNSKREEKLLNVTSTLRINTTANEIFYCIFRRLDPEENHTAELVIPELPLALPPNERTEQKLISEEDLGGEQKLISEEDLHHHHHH
Description: as §1

Human PD-L1 Dimer [3] = target: T3, Human PD-L1 Dimer (human, UniProt Q9NZQ7 19-239); experiment: SPR (Biacore), mAb captured, 25C
T3 construct: also called hPD-L1 dimer; hPD-L1-hFc
T3 sequence (Q9NZQ7 19-239): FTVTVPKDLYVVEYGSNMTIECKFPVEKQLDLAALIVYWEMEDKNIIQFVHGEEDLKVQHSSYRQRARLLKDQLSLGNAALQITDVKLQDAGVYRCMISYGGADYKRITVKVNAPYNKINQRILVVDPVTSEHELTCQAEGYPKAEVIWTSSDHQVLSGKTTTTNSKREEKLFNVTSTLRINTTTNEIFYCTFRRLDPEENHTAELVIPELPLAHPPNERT
Description: as §1

[4] = target: T4, recombinant human PD-L1 (amino acids 19-239 of NP_054862.1) with a C-terminal myc-myc-hexahistidine tag (human); experiment: SPR (Biacore), mAb captured, 37C
T4 construct: also called hPD-L1-MMH; hPD-L1-MMH Monomer
T4 sequence (chain, as listed by the source limits assumed): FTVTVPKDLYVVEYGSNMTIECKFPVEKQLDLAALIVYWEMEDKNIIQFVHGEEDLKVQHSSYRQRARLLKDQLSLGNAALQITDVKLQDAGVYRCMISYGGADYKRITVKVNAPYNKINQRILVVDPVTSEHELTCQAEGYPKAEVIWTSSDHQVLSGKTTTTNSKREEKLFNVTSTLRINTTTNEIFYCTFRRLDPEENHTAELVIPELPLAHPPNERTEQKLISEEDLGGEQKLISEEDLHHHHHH
Description: as §1

[5] = target: T2, recombinant cynomolgus monkey PD-L1 …; experiment: SPR (Biacore), mAb captured, 37C
Description: as §1

Human PD-L1 Dimer [6] = target: T3, Human PD-L1 Dimer; experiment: SPR (Biacore), mAb captured, 37C
Description: as §1

[7] = target: T5, recombinant cynomolgus monkey PD-L1 expressed with a C-terminal mouse IgG2a Fc tag (cynomolgus monkey); experiment: SPR (Biacore), mAb captured, 37C
T5 construct: also called MfPD-L1-mFc; monkey PD-L1-mFc
T5 sequence (chain, as listed by the source limits assumed): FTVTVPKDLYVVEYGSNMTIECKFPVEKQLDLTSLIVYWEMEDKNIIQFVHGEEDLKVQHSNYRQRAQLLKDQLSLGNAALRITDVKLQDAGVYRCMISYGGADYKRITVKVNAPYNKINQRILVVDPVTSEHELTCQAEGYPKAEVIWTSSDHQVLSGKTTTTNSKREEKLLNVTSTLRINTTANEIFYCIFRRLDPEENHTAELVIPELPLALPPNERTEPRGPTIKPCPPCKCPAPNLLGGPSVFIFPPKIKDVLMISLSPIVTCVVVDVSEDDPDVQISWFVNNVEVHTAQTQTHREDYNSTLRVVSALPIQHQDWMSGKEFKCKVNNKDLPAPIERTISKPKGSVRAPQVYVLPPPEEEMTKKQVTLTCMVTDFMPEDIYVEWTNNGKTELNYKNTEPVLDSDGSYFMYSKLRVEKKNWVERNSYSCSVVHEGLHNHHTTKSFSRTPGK
Description: as §1

[8] = target: full length human PD-L1 (amino acids 1 to 290 of NP_054862.1) on transfected cells (human, UniProt Q9NZQ7 19-290); experiment: cell-based or functional assay
Chain of full length human PD-L1 (amino acids 1 to 290 of NP_054862.1) on transfected cells (Q9NZQ7 19-290 limits assumed): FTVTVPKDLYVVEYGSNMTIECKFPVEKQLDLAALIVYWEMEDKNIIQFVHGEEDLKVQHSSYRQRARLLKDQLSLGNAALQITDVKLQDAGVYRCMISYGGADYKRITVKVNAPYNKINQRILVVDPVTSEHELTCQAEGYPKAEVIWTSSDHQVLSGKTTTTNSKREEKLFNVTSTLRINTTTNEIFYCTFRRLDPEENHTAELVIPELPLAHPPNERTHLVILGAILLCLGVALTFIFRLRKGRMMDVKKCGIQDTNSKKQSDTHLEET

| Binder | Kd [1] | koff [1] | kon [1] | t1/2 [1] | Kd [2] [nM] | koff [2] [s⁻¹] | kon [2] [M⁻¹ s⁻¹] | t1/2 [2] [min] | Kd (Human PD-L1 Dimer [3]) [nM] | koff (Human PD-L1 Dimer [3]) [s⁻¹] | kon (Human PD-L1 Dimer [3]) [M⁻¹ s⁻¹] | t1/2 (Human PD-L1 Dimer [3]) [min] | Kd [4] [nM] | koff [4] [s⁻¹] | kon [4] [M⁻¹ s⁻¹] | t1/2 [4] [min] | Kd [5] [nM] | koff [5] [s⁻¹] | kon [5] [M⁻¹ s⁻¹] | t1/2 [5] [min] | other results |
| --- | --- | --- | --- | --- | --- | --- | --- | --- | --- | --- | --- | --- | --- | --- | --- | --- | --- | --- | --- | --- | --- |
| H1H9364P2 (antibody, human IgG1, V domains shown) VH: EVQLVESGGGLVQPGRSLRLSCAASGFTFDDYALHWVRQAPGKGLEWVSGISWTGGTIDYADSVKGRFTISRDNAKNSLYLQMSSLRTEDTAIYYCTRDIRGNWKYGGWFDPWGQGTLVTVSS VL: not shown | 0.0587 nM and 0.0462 nM | 7.75e-05 s⁻¹ and 5.8e-05 s⁻¹ | 1.32e+06 M⁻¹ s⁻¹ and 1.25e+06 M⁻¹ s⁻¹ | 149 min and 199 min | 0.412 | 0.000312 | 757000 | 37 | 0.0437 | 0.000106 | 2.42e+06 | 109 | 0.417 | 0.000563 | 1.35e+06 | 21 | 0.566 | 0.000633 | 1.12e+06 | 18 | Kd (Human PD-L1 Dimer [6]): 0.0208 nM; koff (Human PD-L1 Dimer [6]): 6.96e-05 s⁻¹; kon (Human PD-L1 Dimer [6]): 3.34e+06 M⁻¹ s⁻¹; t1/2 (Human PD-L1 Dimer [6]): 166 min |
| H1H9354P2 (antibody, human IgG1, V domains shown) VH: EVQLVESGGGLVQPGGSLRLSCEASGFTVGVNHMNWVRQAPGKGLEWVSVIFSSGRTFYGDYVKGRLTIFRQTSQNTVYLQMNSLRSEDTAIYYCARGIGGLDIWGRGTMVTVSS VL: not shown | 0.447 nM | 9.14e-05 s⁻¹ | 205000 M⁻¹ s⁻¹ | 126 min | 6.64 | 0.000305 | 46000 | 38 | 0.689 | 0.000116 | 168000 | 100 | 15.4 | 0.00114 | 73900 | 10 | 9.82 | 0.000844 | 85900 | 14 | Kd (Human PD-L1 Dimer [6]): 0.317 nM; koff (Human PD-L1 Dimer [6]): 0.000145 s⁻¹; kon (Human PD-L1 Dimer [6]): 456000 M⁻¹ s⁻¹; t1/2 (Human PD-L1 Dimer [6]): 80 min |
| H1H8314N (antibody, V domains shown, human IgG1 Fc form (H1H prefix) of numerical identifier 8314) VH: EVQLVESGGGVVRPGGSLRLSCAASGFTFDDYGMTWVRQAPGRGLEWVSGIHWHGKRTGYADSVKGRFTISRDNAKKSLYLQMNSLKGEDTALYHCVRGGMSTGDWFDPWGQGTLVIVSS VL: DIQMTQSPSSLSASLGDRVTITCRASQSINSYLNWYQQKPGKAPKLLIYVASSLQSGVPSRFSGSGSGTEFTLTISNLQPEDFATYYCQQSYSTPPITFGQGTRLEIK | – | – | – | – | – | – | – | – | – | – | – | – | – | – | – | – | – | – | – | – | Kd [7]: 0.0333 nM; koff [7]: 9.6e-05 s⁻¹; kon [7]: 2.89e+06 M⁻¹ s⁻¹; t1/2 [7]: 120 min; Concentration [M] of Antibody at 125% activation [8]: 6.57e-11 M; Emax mean [%] @ 100 nM [8]: 148% |
| H1H9345P2 (antibody, human IgG1, V domains shown) VH: EVQLVESGGGLVQPGGSLRLSCAASGFTISTNYMNWVRQAPGKGLEWVAVIYSSGSTYYIDSVKGRFTISRLTSKNTVYLQMSSLNSEDTAVYYCARGIRGFDIWGQGTMVTVSS VL: not shown | 0.512 nM | 0.000151 s⁻¹ | 296000 M⁻¹ s⁻¹ | 76 min | 77.3 | 0.0085 | 110000 | 1.4 | 0.474 | 0.000237 | 500000 | 49 | 197 | 0.034 | 172000 | 0.3 | 121 | 0.0197 | 164000 | 0.6 | Kd (Human PD-L1 Dimer [6]): 0.297 nM; koff (Human PD-L1 Dimer [6]): 0.000203 s⁻¹; kon (Human PD-L1 Dimer [6]): 682000 M⁻¹ s⁻¹; t1/2 (Human PD-L1 Dimer [6]): 57 min |
| H1H9336P (antibody, human IgG1, V domains shown) VH: EVQLVESGGGLVQPGRSLRLSCAASGFTFDDFAMHWVRQAPGKGLEWVSGISWTGGNMDYANSVKGRFTISREDAKNSLYLQMNSLRAADTALYYCVKDIRGIVATGGAFDIWGRGTMVTVSS VL: DIQMTQSPSSLSASVGDRVTISCRASQTISTYLNWFQQKPGKAPKLLIYVVSSLQSGVPSRFSGSGSGTDFTLTISSLQPEDFATYYCQQSYSTPFTFGPGTKVDIK | 0.0622 nM | 6.16e-05 s⁻¹ | 990000 M⁻¹ s⁻¹ | 188 min | 0.876 | 0.000594 | 679000 | 19 | 0.0786 | 0.000109 | 1.38e+06 | 106 | 0.733 | 0.000788 | 1.07e+06 | 15 | 1.38 | 0.00125 | 909000 | 9.2 | Kd (Human PD-L1 Dimer [6]): 0.0302 nM; koff (Human PD-L1 Dimer [6]): 8.31e-05 s⁻¹; kon (Human PD-L1 Dimer [6]): 2.75e+06 M⁻¹ s⁻¹; t1/2 (Human PD-L1 Dimer [6]): 139 min |
| H1H8323N (antibody, V domains shown, human IgG1 Fc form (H1H prefix) of numerical identifier 8323) VH: QVQLVQSGAEVKMPGSSVRVSCKASGGIFSSSTISWVRQAPGQGLEWMGEIIPVFGTVNYAQKFQDRVIFTADESTTTAYMELSSLKSGDTAVYFCARNWGLGSFYIWGQGTMVTVSS VL: EIVLTQSPGTLSLSPGERATLSCRASQSFNFNYLAWYQQKPGQAPRLLIYGASSRATGIPDRFSGSGSGTDFTLTINRLEPEDFGVFYCQQYESAPWTFGQGTKVEIK | – | – | – | – | – | – | – | – | – | – | – | – | – | – | – | – | – | – | – | – | Kd [7]: 0.0451 nM; koff [7]: 0.000135 s⁻¹; kon [7]: 2.99e+06 M⁻¹ s⁻¹; t1/2 [7]: 86 min |

Now from value to binder, other results behind:

| Kd [1] | koff [1] | kon [1] | t1/2 [1] | Kd [2] [nM] | koff [2] [s⁻¹] | kon [2] [M⁻¹ s⁻¹] | t1/2 [2] [min] | Kd (Human PD-L1 Dimer [3]) [nM] | koff (Human PD-L1 Dimer [3]) [s⁻¹] | kon (Human PD-L1 Dimer [3]) [M⁻¹ s⁻¹] | t1/2 (Human PD-L1 Dimer [3]) [min] | Kd [4] [nM] | koff [4] [s⁻¹] | kon [4] [M⁻¹ s⁻¹] | t1/2 [4] [min] | Kd [5] [nM] | koff [5] [s⁻¹] | kon [5] [M⁻¹ s⁻¹] | t1/2 [5] [min] | Binder | other results |
| --- | --- | --- | --- | --- | --- | --- | --- | --- | --- | --- | --- | --- | --- | --- | --- | --- | --- | --- | --- | --- | --- |
| 0.626 nM | 0.000133 s⁻¹ | 213000 M⁻¹ s⁻¹ | 87 min | 157 | 0.0129 | 82200 | 0.9 | 0.663 | 0.000148 | 223000 | 78 | 107 | 0.0107 | 99700 | 1.1 | 189 | 0.0245 | 130000 | 0.5 | H1H9382P2 (antibody, human IgG1, V domains shown) VH: EVQLVESGGGLVQPGGSLRLSCAASGFTVGTNFMNWVRQAPGKGLEWVSAIYSGGTANYADSVKGRFTISRDTSRNTLYLQMNSLRTEDTAVYYCARGGGMDVWGQGTTVTVSS VL: not shown | Kd (Human PD-L1 Dimer [6]): 0.278 nM; koff (Human PD-L1 Dimer [6]): 0.000137 s⁻¹; kon (Human PD-L1 Dimer [6]): 492000 M⁻¹ s⁻¹; t1/2 (Human PD-L1 Dimer [6]): 84 min |
| 0.225 nM | 0.000188 s⁻¹ | 837000 M⁻¹ s⁻¹ | 61 min | 12.2 | 0.00252 | 206000 | 4.6 | 0.245 | 0.00019 | 776000 | 61 | 33 | 0.0113 | 344000 | 1 | 30.5 | 0.012 | 394000 | 1 | H1H9396P2 (antibody, human IgG1, V domains shown) VH: QVQLVQSGAEVEKPGASVKVSCKASGYIFTHYGISWVRQAPGQGLEWVGWISPYNGYTDYAQKLQGRVTLTTDTSTTTAYMELRNLRSDDTAMYYCSRGRGPYWSFDLWGRGTLVTVSS VL: not shown | Kd (Human PD-L1 Dimer [6]): 0.237 nM; koff (Human PD-L1 Dimer [6]): 0.000258 s⁻¹; kon (Human PD-L1 Dimer [6]): 1.09e+06 M⁻¹ s⁻¹; t1/2 (Human PD-L1 Dimer [6]): 45 min |
| 0.0452 nM and 0.073 nM | 0.000161 s⁻¹ and 0.000212 s⁻¹ | 3.55e+06 M⁻¹ s⁻¹ and 2.9e+06 M⁻¹ s⁻¹ | 72 min and 55 min | 25.5 | 0.0604 | 2.37e+06 | 0.2 | 0.0427 | 0.000217 | 5.07e+06 | 53 | 39.1 | 0.137 | 3.49e+06 | 0.08 | 48.9 | 0.157 | 3.2e+06 | 0.07 | H1H9387P2 (antibody, human IgG1, V domains shown) VH: QVQLVQSGAEVKKPGSSVKVSCKASGGTFNTYVLSWVRQAPGQGLEWMGEIIPILGAANYAQNFQGRVTFTTDESTNTAYMDLSSLRSEDTAVYYCARDRTSGGFDPWGQGTLVTVSS VL: not shown | Kd (Human PD-L1 Dimer [6]): 0.0639 nM; koff (Human PD-L1 Dimer [6]): 0.000392 s⁻¹; kon (Human PD-L1 Dimer [6]): 6.12e+06 M⁻¹ s⁻¹; t1/2 (Human PD-L1 Dimer [6]): 29 min |
